Residue numbers refer to the chain shown, from its start. Names and notes keep the numbering of the source.
B1: K375D: ADA2 variant SEQ ID NO:23 (protein)
chain: IDETRAHLLLKEKMMRLGGRLVLNTKEELANERLMTLKIAEMKEAMRTLIFPPSMHFFQAKHLIERSQVFNILRMMPKGAALHLHDIGIVTMDWLVRNVTYRPHCHICFTPRGIMQFRFAHPTPRPSEKCSKWILLEDYRKRVQNVTEFDDSLLRNFTLVTQHPEVIYTNQNVVWSKFETIFFTISGLIHYAPVFRDYVFRSMQEFYEDNVLYMEIRARLLPVYELSGEHHDEEWSVKTYQEVAQKFVETHPEFIGIKIIYSDHRSKDVAVIAESIRMAMGLRIKFPTVVAGFDLVGHEDTGHSLHDYKEALMIPAKDGVKLPYFFHAGETDWQGTSIDRNILDALMLNTTRIGHGFALSKHPAVRTYSWKDDIPIEVCPISNQVLKLVSDLRNHPVATLMATGHPMVISSDDPAMFGAKGLSYDFYEVFMGIGGMKADLRTLKQLAMNSIKYSTLLESEKNTFMEIWKKRWDKFIADVATK
modifications: human ADA2 K372D, mature numbering
B2: R369A: ADA2 variant SEQ ID NO:31 (protein)
chain: B1 chain with R366A, D372K
modifications: human ADA2 R366A, mature numbering
B3: R23A: ADA2 variant SEQ ID NO:28 (protein)
chain: B1 chain with R20A, D372K
modifications: human ADA2 R20A, mature numbering
B4: R23D: ADA2 variant SEQ ID NO:29 (protein)
chain: B1 chain with R20D, D372K
modifications: human ADA2 R20D, mature numbering
B5: K14E: ADA2 variant SEQ ID NO:15 (protein)
chain: B1 chain with K11E, D372K
modifications: human ADA2 K11E, mature numbering
B6: K14A/R23A: ADA2 variant SEQ ID NO:55 (protein)
chain: B1 chain with K11A, R20A, D372K
modifications: human ADA2 K11A/R20A, mature numbering
B7: K374A: ADA2 variant SEQ ID NO:19 (protein)
chain: B1 chain with K371A, D372K
modifications: human ADA2 K371A, mature numbering
B8: K14A/R23A/K374A: ADA2 variant SEQ ID NO:56 (protein)
chain: B1 chain with K11A, R20A, K371A, D372K
modifications: human ADA2 K11A/R20A/K371A, mature numbering
B9: K14A/K374A: ADA2 variant SEQ ID NO:58 (protein)
chain: B1 chain with K11A, K371A, D372K
modifications: human ADA2 K11A/K371A, mature numbering
B10: R369D: ADA2 variant SEQ ID NO:32 (protein)
chain: B1 chain with R366D, D372K
modifications: human ADA2 R366D, mature numbering
B11: K375A: ADA2 variant SEQ ID NO:22 (protein)
chain: B1 chain with D372A
modifications: human ADA2 K372A, mature numbering
B12: R222Q: ADA2 variant SEQ ID NO:39 (protein)
chain: B1 chain with R219Q, D372K
modifications: human ADA2 R219Q, mature numbering
B13: K374D/V102-Q147del→(GGGGS)2 (protein)
chain: IDETRAHLLLKEKMMRLGGRLVLNTKEELANERLMTLKIAEMKEAMRTLIFPPSMHFFQAKHLIERSQVFNILRMMPKGAALHLHDIGIVTMDWLVRNGGGGSGGGGSNVTEFDDSLLRNFTLVTQHPEVIYTNQNVVWSKFETIFFTISGLIHYAPVFRDYVFRSMQEFYEDNVLYMEIRARLLPVYELSGEHHDEEWSVKTYQEVAQKFVETHPEFIGIKIIYSDHRSKDVAVIAESIRMAMGLRIKFPTVVAGFDLVGHEDTGHSLHDYKEALMIPAKDGVKLPYFFHAGETDWQGTSIDRNILDALMLNTTRIGHGFALSKHPAVRTYSWDKDIPIEVCPISNQVLKLVSDLRNHPVATLMATGHPMVISSDDPAMFGAKGLSYDFYEVFMGIGGMKADLRTLKQLAMNSIKYSTLLESEKNTFMEIWKKRWDKFIADVATK
modifications: V102-Q147 replaced by (GGGGS)2; human ADA2 K371D/V99-Q144del->(GGGGS)2, mature numbering

experiment: Adenosine deaminase (ADA) enzymatic activity assay kit; format: biochemical; details: not given

Molecule	enzymatic activity relative to WT rHuADA2
B1	improved enzymatic activity
B2	reduced adenosine deaminase activity
B3	reduced adenosine deaminase activity
B4	reduced adenosine deaminase activity
B5	improved enzymatic activity

same assay, conditions: protein diluted to 5 μg/mL, serially diluted 2 fold (Table 21)

Molecule	adenosine deaminase activity mU/mL	ΔA/min, adenosine deaminase activity
B1	123.5 mU/mL	53.7
B6	96.9 mU/mL	42.1
B2	34.3 mU/mL	14.9
B3	53.3 mU/mL	23.2
B7	59.2 mU/mL	25.8
B8	72.8 mU/mL	31.7
B4	15.9 mU/mL	6.9
B5	89.1 mU/mL	38.8
B9	78.4 mU/mL	34.1
B10	80.2 mU/mL	34.9
B11	81.8 mU/mL	35.5

same assay, conditions: purified protein at 5 μg/mL

Molecule	Adenosine deaminase activity mU/ml	Adenosine deaminase activity ΔA/min
B12	132.9 mU/ml	57.8 ΔA/min

same assay, conditions: purified protein at 5 μg/mL; compared to WT-ADA2

Molecule	% of WT activity
B12	170%

same assay, conditions: relative to rHuADA2 WT (Table 21)

Molecule	% activity vs. WT
B1	158.3%
B6	124.2%
B2	44%
B3	68.4%
B7	75.9%
B8	93.3%
B4	20.3%
B5	114.2%
B9	100.5%
B10	102.8%
B11	104.8%

experiment: Heparin-affinity chromatography (heparin-Sepharose, SDS-PAGE); format: binding; details: not given
Protocol: To assess binding of variants to heparin, heparin-affinity chromatography was employed to identify heparin-bound variants. Heparin binding was tested by mixing 35 μL of rHuADA2 WT and variants with 20 μL heparin-Sepharose™ resin (GE Healthcare, Pittsburgh, Pa.; Cat. No. 17-0998-01), followed by incubating at room temperature for 30 min. The mixture was then centrifuged through a 0.22 μm centrifuge filter and the flow-through, containing the unbound protein, was collected for analysis on an SDS-PAGE gel. 35 μL of 1.5 M NaCl was added to heparin-Sepharose resin and incubated at room temperature (RT) for 10 min to elute the remaining heparin-bound protein from the heparin-Sepharose. Samples of purified WT rHuADA2 and tested variants, before and after mixing with the heparin-Sepharose resin, were analyzed by SDS-PAGE to compare the degree of heparin binding.

Molecule	heparin binding compared to WT
B1	attenuated heparin binding
B2	reduced heparin binding
B3	reduced heparin binding
B4	reduced heparin binding
B5	not attenuated

same assay, conditions: compared to WT rHuADA2; 0.3 mg/mL protein

Molecule	Heparin Column Binding
B1	Reduced
B6	Reduced
B2	Reduced
B3	Reduced
B7	Reduced
B8	Reduced
B4	Reduced
B9	Reduced
B10	Reduced
B11	Reduced

experiment: Heparin binding ELISA (heparin coated microtiter plate); details: Set 1; 3 μM protein
Protocol: A 96-well plate was coated with 100 μL of 200 μg/mL heparin sodium salt (Calibochem, EMD Milipore, Billerica, Mass.; Cat. No. 375095) in Na2CO3 buffer (pH 9.6), overnight at 4° C. The wells were blocked with 5% milk in PBS, and washed 6 times with PBS. 3 μM of select rHuADA2 variants (see Table 20), WT rHuADA2 (positive control) and WT rHuADA1 (negative control) were added to the wells individually and incubated for 2 hours at room temperature, followed by washing 6 times with PBS. 100 μL of 1:1000 diluted horseradish peroxidase (HRP)-anti-FLAG antibody (Abcam, Cambridge, UK; Cat. No. Ab1238) was added to the wells to detect binding and incubated at room temperature for 1 hour. The ELISA reactions were developed by adding the 3,3′,5,5′-Tetramethylbenzidine (TMB) substrate solution (Pierce, Thermo Fisher Scientific, Rockford, Ill.) according the manufacturer's instructions and reading the optical density at 450 nm (OD450) on a plate reader.

Molecule	Average OD450, heparin binding ELISA
B1	0.2

experiment: Kinetic assessment of adenosine deaminase activity (ammonia assay, Michaelis-Menten); format: biochemical; details: pH 6.5
Procedure, shortened: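 Coupled ammonia assay: rHuADA2 WT or variants (1 μg/mL, 17 nM in 2× mix) with adenosine 20 μM–20 mM, α-ketoglutarate, NADPH and GDH, at pH 7.6 or pH 6.5 (PIPES), room temperature. Michaelis-Menten fit gave Km, Vmax, kcat, kcat/Km.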

Molecule	Km
B12	994 µM

same assay, conditions: pH 6.5; [E] = 8.5 nM

Molecule	Km	Vmax
B12	994 µM	42.15 µM/min

same assay, conditions: pH 6.5; [E] = 8.5 nM; kcat=Vmax/0.0085/60

Molecule	kcat
B12	82.65 s⁻¹

same assay, conditions: pH 7.6

Molecule	Km
B12	1920 µM

same assay, conditions: pH 7.6; [E] = 8.5 nM

Molecule	Km	Vmax	kcat
B12	1920 µM	59.28 µM/min	–
B13	870 µM	44.52 µM/min	87.29 s⁻¹

same assay, conditions: pH 7.6; [E] = 8.5 nM; kcat=Vmax/0.0085/60

Molecule	kcat
B12	116.24 s⁻¹

Reference: patent US9969998B2, “Compositions of adenosine deaminase-2 (ADA2), variants thereof and methods of using same” (Halozyme, Inc., priority 2014, dated 2018)
